In US20070225241A1:

Target: calf thymus RNA Polymerase II (12-subunit enzyme, Form II; core of Form I) (bovine (calf thymus))
Test: quantification of seven Coomassie stained SDS-PAGE gel bands of purified or reconstituted FI RNAPII

## native calf thymus Gdown1 (41 kD polypeptide of Form I RNAPII) (from UniProt Q17QE3 1-370)
  average molar ratio of Gdown1 to Rpb5 in FI RNAPII: 1 molar ratio
